{
  "source": "patent US11813311B2",
  "about": "“Treatment and prevention of metabolic diseases” (Singapore Health Services PTE LTD., priority 2019, dated 2023)",
  "system": "mice with UUO-induced kidney injury",
  "assay": "Weight loss after UUO-induced acute kidney injury",
  "format": "in vivo, mouse",
  "settings": "20 mg/kg 2×/week from day 4 post-UUO",
  "protocol": "In further experiments, mice were subjected to unilateral ureter obstruction (UUO)-induced acute kidney injury. UUO surgeries were carried out on 12-week old mice. Briefly, mice were anesthetized by IP injection of ketamine (100 mg/kg)/xylazine (10 mg/kg) and full depth of anaesthesia was accessed with the pedal reflex. Mice were then shaved on the left side of the abdomen. A vertical incision was made through the skin with a scalpel, a second incision was made through the peritoneum to reveal the kidney. Using forceps, the kidney was brought to the surface and the ureter was tied with surgical silk, twice, below the kidney. The ligated kidney was placed gently back into its correct anatomical position and sterile saline was added to replenish loss of fluid. The incisions were then sutured. Animals were post-operatively treated with antibiotic enrofloxacin (15 mg/kg, SC) and analgesic buprenorphine (0.1 mg/kg, SC) for three consecutive days. Mice were sacrificed 10 days post-ligation. Mice were intraperitoneally injected with 20 mg/kg (2×/week) of anti-IL-11 antibody or identical concentration of IgG isotype control from day 4 post-surgery until the mice were sacrificed.",
  "data": [
    {"molecule": "X203: mouse anti-mouse IL-11 IgG (IgG1κ), neutralising; VH SEQ ID NO:22, VL SEQ ID NO:23 (antibody, V domains shown, Enx203 VH; Enx203 VL) VH: EVQLQQSGPELVKPGASVKIPCKASGYTFTDYNMDWVKQSHGKSLEWIGDINPHNGGPIYNQKFTGKATLTVDKSSSTAYMELRSLTSEDTAVYYCARGELGHWYFDVWGTGTTVTVSS VL: DIVLTQSPASLAVSLGQRATISCRASKSVSTSGYSYIHWYQQKPGQPPKLLIYLASNLDSGVPARFSGSGSGTDFTLNIHPVEEEDAATYYCQHSRDLPPTFGGGTKLEIK", "values": [
      {"measurement": "regain of body weight", "value": "regained their body weight more quickly than those receiving IgG control"},
      {"measurement": "time to return to normal weight", "value": "≤ 4", "unit": "days"}
    ]}
  ]
}
